This is an account of results in publication PMC7261417.

The assay addresses T1, aquaporin-Z, P60844.
T1 chain: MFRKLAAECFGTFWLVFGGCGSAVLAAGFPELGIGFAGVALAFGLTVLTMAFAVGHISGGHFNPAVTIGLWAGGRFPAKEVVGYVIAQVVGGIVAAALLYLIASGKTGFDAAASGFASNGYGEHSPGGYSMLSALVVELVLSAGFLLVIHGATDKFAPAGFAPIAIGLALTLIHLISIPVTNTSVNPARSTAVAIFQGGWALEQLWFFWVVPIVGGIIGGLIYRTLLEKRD
Put plainly: native MS. As to conditions: remark: other sources report otherwise.

B1: aquaporin-Z, P60844 1-231 (natural protein)
chain: T1 chain
modifications: here or on the partner: multiple N-terminal formylation modifications; multiple N-terminal formylation modifications
B1 gave a stoichiometry N of 4.
